The target in this assay is ALFA‐tag binder 4A.

Ends that are not written are not given here. * marks the point of attachment. FITC = O=C1OC2(c3ccc(O)cc3Oc3cc(O)ccc32)c2ccc(NC(=S)*)cc21

What is called Kd is a measure of binding affinity in units of concentration. A high value points to lower affinity.

{FITC}-SRLEEELRRRLTE [N‐terminally FITC‐labeled ALFA‐tag] displayed a Kd of 222 µM.

Source of the values: article PMC12432402 (2025).
